Laboratory results reported in PMC10567853, “USP1 promotes cholangiocarcinoma progression by deubiquitinating PARP1 to prevent its proteasomal degradation” (Cell Death & Disease, 2023).

Molecular target: T1, Myc-tagged full-length (FL) PARP1 (UniProt P09874 1-1014)
T1 construct: also called Myc-PARP1
Test: pull-down; GST, GST-USP1 or GST-USP1 C90S coupled to glutathione-Sepharose beads, incubated with purified Myc-PARP1; 50 mM Tris-HCl, 200 mM NaCl, 1 mM EDTA, 1% NP-40, 1 mM DTT, 10 mM MgCl2, pH 8.0; 4 °C, 4 hours
Details: both partners purified

T1 sequence (P09874 whole entry): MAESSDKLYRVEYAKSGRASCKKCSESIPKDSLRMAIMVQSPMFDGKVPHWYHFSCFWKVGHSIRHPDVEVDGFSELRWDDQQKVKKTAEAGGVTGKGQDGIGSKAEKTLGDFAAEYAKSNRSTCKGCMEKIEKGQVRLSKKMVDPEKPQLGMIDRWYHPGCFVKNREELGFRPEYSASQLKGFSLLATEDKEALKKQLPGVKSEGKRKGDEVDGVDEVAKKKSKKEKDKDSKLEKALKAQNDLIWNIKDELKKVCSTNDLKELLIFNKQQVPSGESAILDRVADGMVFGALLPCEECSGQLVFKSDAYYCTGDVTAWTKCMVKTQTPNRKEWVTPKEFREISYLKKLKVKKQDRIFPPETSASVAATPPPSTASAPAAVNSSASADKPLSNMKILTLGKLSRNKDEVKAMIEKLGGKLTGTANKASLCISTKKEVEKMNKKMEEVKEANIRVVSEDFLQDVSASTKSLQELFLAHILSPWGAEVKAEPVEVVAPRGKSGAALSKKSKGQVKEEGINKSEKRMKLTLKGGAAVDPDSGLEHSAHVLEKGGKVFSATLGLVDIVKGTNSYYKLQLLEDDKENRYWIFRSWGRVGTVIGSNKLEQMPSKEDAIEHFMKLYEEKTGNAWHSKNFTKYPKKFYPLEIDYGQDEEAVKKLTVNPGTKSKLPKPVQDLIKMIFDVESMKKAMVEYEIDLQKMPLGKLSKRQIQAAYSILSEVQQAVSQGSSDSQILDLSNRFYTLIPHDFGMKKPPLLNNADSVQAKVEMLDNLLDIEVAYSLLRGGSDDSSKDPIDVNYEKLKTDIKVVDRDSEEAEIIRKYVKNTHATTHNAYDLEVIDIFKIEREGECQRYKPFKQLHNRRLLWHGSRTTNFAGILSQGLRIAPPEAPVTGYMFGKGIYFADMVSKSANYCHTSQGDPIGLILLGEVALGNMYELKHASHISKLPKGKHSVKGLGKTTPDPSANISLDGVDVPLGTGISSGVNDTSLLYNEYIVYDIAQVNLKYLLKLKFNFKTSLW

binding result | Binder
binds | GST-USP1 (enzyme, UniProt O94782 1-785, looked up, Coupled to glutathione-Sepharose beads in the pull-down; also called recombinant GST-USP1; source: E. coli BL21 (DE3), purified (GST-tag purification resin)) MPGVIPSESNGLSRGSPSKKNRLSLKFFQKKETKRALDFTDSQENEEKASEYRASEIDQVVPAAQSSPINCEKRENLLPFVGLNNLGNTCYLNSILQVLYFCPGFKSGVKHLFNIISRKKEALKDEANQKDKGNCKEDSLASYELICSLQSLIISVEQLQASFLLNPEKYTDELATQPRRLLNTLRELNPMYEGYLQHDAQEVLQCILGNIQETCQLLKKEEVKNVAELPTKVEEIPHPKEEMNGINSIEMDSMRHSEDFKEKLPKGNGKRKSDTEFGNMKKKVKLSKEHQSLEENQRQTRSKRKATSDTLESPPKIIPKYISENESPRPSQKKSRVKINWLKSATKQPSILSKFCSLGKITTNQGVKGQSKENECDPEEDLGKCESDNTTNGCGLESPGNTVTPVNVNEVKPINKGEEQIGFELVEKLFQGQLVLRTRCLECESLTERREDFQDISVPVQEDELSKVEESSEISPEPKTEMKTLRWAISQFASVERIVGEDKYFCENCHHYTEAERSLLFDKMPEVITIHLKCFAASGLEFDCYGGGLSKINTPLLTPLKLSLEEWSTKPTNDSYGLFAVVMHSGITISSGHYTASVKVTDLNSLELDKGNFVVDQMCEIGKPEPLNEEEARGVVENYNDEEVSIRVGGNTQPSKVLNKKNVEAIGLLGGQKSKADYELYNKASNPDKVASTAFAENRNSETSDTTGTHESDRNKESSDQTGINISGFENKISYVVQSLKEYEGKWLLFDDSEVKVTEEKDFLNSLSPSTSPTSTPYLLFYKKL
binds | GST-USP1 C90S (enzyme, UniProt O94782 1-785, looked up, Coupled to glutathione-Sepharose beads in the pull-down; source: E. coli BL21 (DE3), purified (GST-tag purification resin)) MPGVIPSESNGLSRGSPSKKNRLSLKFFQKKETKRALDFTDSQENEEKASEYRASEIDQVVPAAQSSPINCEKRENLLPFVGLNNLGNTSYLNSILQVLYFCPGFKSGVKHLFNIISRKKEALKDEANQKDKGNCKEDSLASYELICSLQSLIISVEQLQASFLLNPEKYTDELATQPRRLLNTLRELNPMYEGYLQHDAQEVLQCILGNIQETCQLLKKEEVKNVAELPTKVEEIPHPKEEMNGINSIEMDSMRHSEDFKEKLPKGNGKRKSDTEFGNMKKKVKLSKEHQSLEENQRQTRSKRKATSDTLESPPKIIPKYISENESPRPSQKKSRVKINWLKSATKQPSILSKFCSLGKITTNQGVKGQSKENECDPEEDLGKCESDNTTNGCGLESPGNTVTPVNVNEVKPINKGEEQIGFELVEKLFQGQLVLRTRCLECESLTERREDFQDISVPVQEDELSKVEESSEISPEPKTEMKTLRWAISQFASVERIVGEDKYFCENCHHYTEAERSLLFDKMPEVITIHLKCFAASGLEFDCYGGGLSKINTPLLTPLKLSLEEWSTKPTNDSYGLFAVVMHSGITISSGHYTASVKVTDLNSLELDKGNFVVDQMCEIGKPEPLNEEEARGVVENYNDEEVSIRVGGNTQPSKVLNKKNVEAIGLLGGQKSKADYELYNKASNPDKVASTAFAENRNSETSDTTGTHESDRNKESSDQTGINISGFENKISYVVQSLKEYEGKWLLFDDSEVKVTEEKDFLNSLSPSTSPTSTPYLLFYKKL
